Assays:
[1] = target: BcerB, TOMM dehydrogenase (B-protein) from Bacillus cereus 172560W (Bacillus cereus 172560W); test: fluorescence polarisation
[2] = target: McbB/D (Escherichia coli) (UniProt P23184); conditions: cited from earlier work
Sequence of UniProt P23184 (P23184 whole entry, chain 1 of 2): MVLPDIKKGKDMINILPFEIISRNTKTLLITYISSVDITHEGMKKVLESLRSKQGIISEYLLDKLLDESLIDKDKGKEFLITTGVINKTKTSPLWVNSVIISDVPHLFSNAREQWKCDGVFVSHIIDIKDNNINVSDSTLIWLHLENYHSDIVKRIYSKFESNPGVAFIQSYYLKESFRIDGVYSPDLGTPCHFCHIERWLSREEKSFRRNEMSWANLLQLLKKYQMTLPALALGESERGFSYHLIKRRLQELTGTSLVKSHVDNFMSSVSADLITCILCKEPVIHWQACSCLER
Sequence of UniProt P23184 (P23186 whole entry, chain 2 of 2, further chain): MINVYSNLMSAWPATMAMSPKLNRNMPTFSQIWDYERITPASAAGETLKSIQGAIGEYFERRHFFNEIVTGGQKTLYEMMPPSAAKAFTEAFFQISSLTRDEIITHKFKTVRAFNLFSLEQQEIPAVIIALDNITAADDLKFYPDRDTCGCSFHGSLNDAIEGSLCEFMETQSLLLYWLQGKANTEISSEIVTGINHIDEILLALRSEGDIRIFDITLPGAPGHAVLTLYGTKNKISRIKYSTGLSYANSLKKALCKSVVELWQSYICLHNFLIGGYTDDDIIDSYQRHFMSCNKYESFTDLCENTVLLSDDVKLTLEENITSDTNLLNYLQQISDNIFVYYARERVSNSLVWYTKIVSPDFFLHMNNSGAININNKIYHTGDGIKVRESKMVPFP

Kd [1] [µM]	Substance	Kd [2] [µM]
1.7	Balh cyclodehydratase (BalhC/D) from Bacillus sp. Al Hakam (complex)	–
–	McbC (from UniProt P23185)	1.8

Source: PMC3928670
